Measurements taken from IntAct's records for PubMed 32073997.

B1: AKT-interacting protein (Homo sapiens), Q9H8T0 (parent)
chain: MNPFWSMSTSSVRKRSEGEEKTLTGDVKTSPPRTAPKKQLPSIPKNALPITKPTSPAPAAQSTNGTHASYGPFYLEYSLLAEFTLVVKQKLPGVYVQPSYRSALMWFGVIFIRHGLYQDGVFKFTVYIPDNYPDGDCPRLVFDIPVFHPLVDPTSGELDVKRAFAKWRRNHNHIWQVLMYARRVFYKIDTASPLNPEAAVLYEKDIQLFKSKVVDSVKVCTARLFDQPKIEDPYAISFSPWNPSVHDEAREKMLTQKKPEEQHNKSVHVAGLSWVKPGSVQPFSKEEKTVAT
partner: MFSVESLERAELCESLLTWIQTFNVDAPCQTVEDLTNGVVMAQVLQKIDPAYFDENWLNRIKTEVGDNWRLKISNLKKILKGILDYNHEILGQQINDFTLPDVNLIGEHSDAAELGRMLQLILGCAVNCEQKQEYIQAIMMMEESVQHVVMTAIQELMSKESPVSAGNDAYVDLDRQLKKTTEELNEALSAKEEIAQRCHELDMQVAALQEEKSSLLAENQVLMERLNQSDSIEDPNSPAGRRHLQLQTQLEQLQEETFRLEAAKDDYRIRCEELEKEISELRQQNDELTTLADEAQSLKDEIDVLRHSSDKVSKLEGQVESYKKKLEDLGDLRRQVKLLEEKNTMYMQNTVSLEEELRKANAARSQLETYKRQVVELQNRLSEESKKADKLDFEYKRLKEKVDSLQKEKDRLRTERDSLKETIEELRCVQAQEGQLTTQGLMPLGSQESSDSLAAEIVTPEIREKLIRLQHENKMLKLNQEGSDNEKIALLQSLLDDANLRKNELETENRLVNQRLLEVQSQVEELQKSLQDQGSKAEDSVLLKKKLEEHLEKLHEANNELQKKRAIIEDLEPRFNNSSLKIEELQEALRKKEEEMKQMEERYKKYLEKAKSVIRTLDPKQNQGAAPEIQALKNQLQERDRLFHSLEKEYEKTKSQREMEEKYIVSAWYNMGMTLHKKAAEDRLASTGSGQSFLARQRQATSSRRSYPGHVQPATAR
B2: AKT-interacting protein (Homo sapiens), Q9H8T0 (parent)
chain: B1 chain
partner: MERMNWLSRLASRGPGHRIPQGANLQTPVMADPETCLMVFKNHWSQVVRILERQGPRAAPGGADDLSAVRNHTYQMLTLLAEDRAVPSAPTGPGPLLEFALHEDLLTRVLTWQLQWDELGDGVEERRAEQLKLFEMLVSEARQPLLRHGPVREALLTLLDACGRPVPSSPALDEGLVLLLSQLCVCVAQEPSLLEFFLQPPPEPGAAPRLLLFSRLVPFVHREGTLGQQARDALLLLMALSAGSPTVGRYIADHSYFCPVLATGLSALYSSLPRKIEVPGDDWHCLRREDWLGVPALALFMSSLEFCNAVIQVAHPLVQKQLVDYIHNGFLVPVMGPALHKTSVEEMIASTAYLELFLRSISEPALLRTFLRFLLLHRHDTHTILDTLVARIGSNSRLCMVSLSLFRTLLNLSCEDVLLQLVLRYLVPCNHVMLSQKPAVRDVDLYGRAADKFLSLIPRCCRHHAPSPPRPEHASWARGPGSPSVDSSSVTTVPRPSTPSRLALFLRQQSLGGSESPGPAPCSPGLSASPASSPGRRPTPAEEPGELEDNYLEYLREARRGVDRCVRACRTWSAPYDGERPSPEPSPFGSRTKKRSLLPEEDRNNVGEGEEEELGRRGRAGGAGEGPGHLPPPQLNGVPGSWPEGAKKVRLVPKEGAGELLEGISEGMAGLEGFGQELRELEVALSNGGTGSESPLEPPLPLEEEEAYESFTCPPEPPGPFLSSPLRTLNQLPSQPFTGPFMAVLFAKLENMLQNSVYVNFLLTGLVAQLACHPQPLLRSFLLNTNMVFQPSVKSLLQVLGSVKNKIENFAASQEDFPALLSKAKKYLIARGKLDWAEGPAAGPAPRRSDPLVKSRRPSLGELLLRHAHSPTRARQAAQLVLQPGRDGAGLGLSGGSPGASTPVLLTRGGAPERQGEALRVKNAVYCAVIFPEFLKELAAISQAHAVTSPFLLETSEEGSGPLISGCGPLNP
B3: AKT-interacting protein (Homo sapiens), Q9H8T0 (parent)
chain: B1 chain
partner: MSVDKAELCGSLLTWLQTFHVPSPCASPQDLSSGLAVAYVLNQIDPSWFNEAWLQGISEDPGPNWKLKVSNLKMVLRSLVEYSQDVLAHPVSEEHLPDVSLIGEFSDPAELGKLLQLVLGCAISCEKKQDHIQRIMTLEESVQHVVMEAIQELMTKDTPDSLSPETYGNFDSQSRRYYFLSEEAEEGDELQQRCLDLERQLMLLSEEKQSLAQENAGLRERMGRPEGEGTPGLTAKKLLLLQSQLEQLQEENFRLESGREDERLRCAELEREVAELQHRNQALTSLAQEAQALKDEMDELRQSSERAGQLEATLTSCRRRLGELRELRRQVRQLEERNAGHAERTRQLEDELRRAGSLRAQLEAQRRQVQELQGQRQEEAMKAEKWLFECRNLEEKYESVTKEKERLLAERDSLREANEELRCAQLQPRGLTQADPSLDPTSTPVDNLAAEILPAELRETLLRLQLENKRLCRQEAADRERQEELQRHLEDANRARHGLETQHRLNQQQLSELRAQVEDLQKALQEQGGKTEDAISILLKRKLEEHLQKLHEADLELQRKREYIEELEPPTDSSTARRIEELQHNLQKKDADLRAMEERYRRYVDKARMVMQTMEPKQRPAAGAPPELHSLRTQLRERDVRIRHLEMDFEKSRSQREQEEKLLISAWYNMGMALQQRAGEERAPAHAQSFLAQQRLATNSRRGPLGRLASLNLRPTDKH

Variants of: B1
Conditions: with hook3_human HOOK3, Q86VS8

| Variant | effect of a mutation on the interaction |
| --- | --- |
| W106A;F107A | decreasing interaction strength |

Variants of: B2
Conditions: with FHIP1B

| Variant | effect of a mutation on the interaction |
| --- | --- |
| W106A;F107A | disrupting interaction strength |

Variants of: B3
Conditions: with hook2_human HOOK2, Q96ED9

| Variant | effect of a mutation on the interaction |
| --- | --- |
| W106A;F107A | disrupting interaction strength |
